One data set has as its target T1, human VPAC2 (Homo sapiens, UniProt P41587).
T1 construct: expressed in transfected cells
T1 sequence (P41587 24-438): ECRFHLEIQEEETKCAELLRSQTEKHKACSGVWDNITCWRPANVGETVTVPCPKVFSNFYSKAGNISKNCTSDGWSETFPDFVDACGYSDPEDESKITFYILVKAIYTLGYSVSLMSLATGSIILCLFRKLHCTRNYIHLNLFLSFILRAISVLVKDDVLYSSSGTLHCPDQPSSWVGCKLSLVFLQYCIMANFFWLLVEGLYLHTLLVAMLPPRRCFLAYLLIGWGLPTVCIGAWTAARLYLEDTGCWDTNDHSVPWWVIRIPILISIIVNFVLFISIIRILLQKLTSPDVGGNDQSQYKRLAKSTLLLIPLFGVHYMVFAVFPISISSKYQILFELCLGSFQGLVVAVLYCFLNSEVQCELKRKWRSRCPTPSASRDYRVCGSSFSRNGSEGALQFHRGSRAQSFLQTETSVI
Kind of data set: Filter binding assay, membranes from stable VPAC2 cell line, 125I-labeled VIP tracer. As to conditions: read-out: Human receptor binding (IC50; nM) VPAC2. Here is the method:
For this assay, the solutions and equipment include:
Presoak solution: 0.5% Polyethyleneamine in Aqua dest.
Buffer for flushing filter plates: 25 mM HEPES pH 7.4
Blocking buffer: 25 mM HEPES pH 7.4; 0.2% protease free BSA
Assay buffer: 25 mM HEPES pH 7.4; 0.5% protease free BSA
Dilution and assay plate: PS-Microplate, U form
Filtration Plate Multiscreen FB Opaque Plate; […] Type B Glasfiber filter
In order to prepare the filter plates, the presoak solution is aspirated by vacuum filtration. The plates are flushed twice with 200 μL flush buffer. 200 μL blocking buffer is added to the filter plate. The filter plate is then incubated with 200 μL presoak solution for 1 hour at room temperature.
The assay plate is filled with […] (2.5 μg) suspended in assay buffer, 25 μL compound (agonist) in assay buffer, and 25 μL tracer (about 40000 cpm) in assay buffer. The filled plate is incubated for 1 hour with shaking.
The transfer from assay plate to filter plate is conducted. The blocking buffer is aspirated by vacuum filtration and washed two times with flush buffer. 90 μL is transferred from the assay plate to the filter plate. The 90 μL transferred from assay plate is aspirated and washed three times with 200 μL flush buffer. The plastic support is removed. It is dried for 1 hour at 60° C. 30 μL Microscint is added. The count is performed.
Values reported are single results or the mean of two or more independent runs.

Data set [1] in a line: Rat serum stability at 37 C, remaining active peptide estimated by EC50,4C/EC50,37C in CHO-VPAC2 cAMP assay. Conditions: for Estimated serum stability (%): after 24 h in rat serum at 37 C. Here is the method: The rat serum is stored at 4° C. until use and is used within two weeks.
On Day 0, two 100 μL aliquots of 10 μM peptide in rat serum are prepared by adding 10 μL peptide stock to 90 μL rat serum for each aliquot. 250 kIU aprotinin/mL is added to one of these aliquots. The aliquot is stored with aprotinin at 4° C. The aliquot is stored without aprotinin at 37° C. The aliquots are incubated for […].
On Day 1, after incubation of the aliquots prepared on day 0 for 24 hours, an incubation buffer containing PBS+1.3 mM CaCl2, 1.2 mM MgCl2, 2 mM glucose, and 0.25 mM IBMX is prepared. A plate with 11 serial 5× dilutions of peptide for the 4° C. and 37° C. aliquot is prepared for each peptide studied. […] The plate(s) are washed with cells twice in incubation buffer. The plates are allowed to hold 50 μL incubation media per well for 15 minutes. 50 μL solution per well is transferred to the cells from the plate prepared with 11 serial 5× dilutions of peptide for the 4° C. and 37° C. aliquot for each peptide studied, using the maximal concentrations that are indicated by the primary screen, in duplicate. This step dilutes the peptide concentration by a factor of two. The cells are incubated at room temperature for 30 minutes. The supernatant is removed. 40 μL/well of the DiscoveRx antibody/extraction buffer is added. The cells are incubated on the shaker (300 rpm) for 1 hour. Normal procedure with the DiscoveRx kit is followed. cAMP standards are included in column 12. EC50 values are determined from the cAMP assay data.

In another data set the target is T2, rat VPAC1 receptor (Rattus norvegicus, UniProt P30083).
T2 construct: expressed in transfected cells; host or cells: CHO-PO cells, transient
T2 sequence (P30083 31-459): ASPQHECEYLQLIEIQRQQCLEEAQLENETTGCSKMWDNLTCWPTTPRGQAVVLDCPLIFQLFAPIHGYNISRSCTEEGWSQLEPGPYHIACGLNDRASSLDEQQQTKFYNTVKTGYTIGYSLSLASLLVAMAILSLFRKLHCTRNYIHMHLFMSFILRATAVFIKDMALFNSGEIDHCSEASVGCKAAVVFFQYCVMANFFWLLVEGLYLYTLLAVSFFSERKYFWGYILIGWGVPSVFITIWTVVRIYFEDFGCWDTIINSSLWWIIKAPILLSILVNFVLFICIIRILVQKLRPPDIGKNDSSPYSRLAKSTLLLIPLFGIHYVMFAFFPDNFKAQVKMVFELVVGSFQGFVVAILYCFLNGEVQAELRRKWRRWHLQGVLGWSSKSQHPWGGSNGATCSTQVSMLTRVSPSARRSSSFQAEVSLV
As to the kind of experiment: Rat VPAC1 in vitro potency (cAMP generation, DiscoveRx) in transiently transfected CHO-PO cells. The class given is cell-based. As to conditions: CHO-PO cells transiently transfected with rat VPAC1; read-out: rVPAC1 in vitro potency (cAMP generation) EC50. Here is the method: Rat receptor selectivity is estimated by comparing functional potency (cAMP generation) in CHO-PO cells transiently expressing rat VPAC1 or rat VPAC2 receptors. CHO-PO cells transiently expressing rat VPAC1 or VPAC2, are seeded with 10,000 cells/well three days before the assay. The cells are kept in 200 μL culture medium. […] The stimuli are present for 30 minutes. The assay buffer is then gently removed.

A short description of data set [2]: Pharmacokinetic profiles of PEGylated peptides, plasma peptide by RIA. Conditions: Fisher 344 rats, 100 μg compound/kg, plasma RIA, mean N = 3. The class given is in vivo, Fisher 344 rats. Here is the method:
Pharmacokinetic profiles of PEGylated peptides. Healthy Fisher 344 rats (3 animals per group) are injected with 100 μg compound/kg (compound amount based on peptide content and dissolved in PBS buffer). […] PK parameters are then calculated using a model-independent method (WinNonlin Pro, Pharsight Corp., Mountain View, Calif., USA).

The mark [3] stands for this setting: values >100% may represent release of intact peptide from the PEG conjugate.

Where two headings read alike, the source gives them in different places. Ends that are not written are not given here.

Broadly, the IC50 is the concentration that gives 50% inhibition. The term Cmax denotes the maximum level reached in the sampled fluid or tissue. A word on the Tmax: it is the time from dosing to the highest level.

With “C6-HDAVFTEQY(OMe)TOrnLRAibQVAAAibOrnYLQSIOrnOrnGGPSSGAPPPC(PEG60K)-NH2 [Agonist P404]”, the IC50 in the data set with human VPAC2 is 13.1 nM. Besides, the “Estimated serum stability (%)” value in data set [1] (setting [3]) is 320.7%. Moreover, the EC50 in the data set with rat VPAC1 receptor is 23.4 nM. Further, in data set [2], the AUC0-last turned out to be 6070 ng·h/mL, the Cl/F stood at 0.283 mL/min/kg, the Cmax was found to be 133 ng/mL and the Tmax came to 20 h. The same substance showed a T½ in data set [2] of 23 h.
Turning to “C6-HSDAVFTDNYTOrnLRAibQVAAAibKYLQC(PEG40K)IOrnNOrnGGPSSGAPPPS (HSDAVFTDNYTXLRXQVAAXKYLQCIXNXGGPSSGAPPPS; non-natural residues) [Agonist P373]”, in the data set with human VPAC2, the IC50 was determined as 111 nM. The “Estimated serum stability (%)” value in data set [1] (setting [3]) is on record as 73.6%. Also, the “Estimated 72 h stability (%)” value in data set [1] (after 72 h in rat serum at 37 C, values >100% may represent release of intact peptide from the PEG conjugate) is 47.1%. The EC50 with rat VPAC1 receptor is 350 nM. In data set [2], the AUC0-last is 10803 ng·h/mL, the Cl/F was found to be 0.167 mL/min/kg, the Cmax is listed as 240 ng/mL and the time of peak concentration (Tmax) was 13 h. In data set [2], this substance returned a T½ of 31 h.
Consider “C6-HSDAVFTEQY(OMe)TOrnLRAibQVAK(CO(CH2)2SPEG40K)AibOrnYLQSIOrnOrnGGPSSGAPPPS-NH2 (HSDAVFTEQYTXLRXQVAXXXYLQSIXXGGPSSGAPPPS; non-natural residues) [Agonist P432]”, for which the IC50 with human VPAC2 came out at 130 nM. The “Estimated serum stability (%)” value in data set [1] (setting [3]) is reported as 102.1%. Moreover, in the data set with rat VPAC1 receptor, the EC50 was > 100 nM. For the same substance, in data set [2], the AUC0-last came to 21471 ng·h/mL, the Cl/F was found to be 0.083 mL/min/kg, the maximum concentration (Cmax) turned out to be 392 ng/mL and the Tmax is 16 h. In data set [2], this substance gave a T½ of 35 h.
“P137: PEGylated material obtained from P120 and methoxy-PEG2-MAL-40K (HSDAVFTDNYTRLRKQVAAKKYLQSIKNKRYGGPSSGAPPPC; also: PEGylated with methoxy-PEG2-MAL-40K, site not given here) [Agonist P137]”: the IC50 with human VPAC2 was 0.64 nM. The “Estimated 72 h stability (%)” value in data set [1] is recorded as 52.8%. Moreover, in the data set with rat VPAC1 receptor, the EC50 worked out at 29.7 nM.

These data come from patent US20080146500A1, “Selective Vpac2 Receptor Peptide Agonists” (priority 2004, published 2008).
